Measurements from the supplement of paper PMC11246515.
± gives the standard deviation of the averaged measurements.

Experiment: total protein half-life in vivo (active degradation + dilution); higher = more stable protein
[1] = E. coli NCM3722 delta-clpP delta-lon delta-hslV, growth: N-lim chemostat, doubling time 6 h
[2] = E. coli NCM3722 delta-clpP, growth: N-lim chemostat, doubling time 6 h
[3] = E. coli NCM3722 delta-lon, growth: N-lim chemostat, doubling time 6 h
[4] = E. coli NCM3722 delta-smpB, growth: N-lim chemostat, doubling time 6 h
[5] = wild type E. coli NCM3722, growth: C-lim chemostat, doubling time 3 h
[6] = wild type E. coli NCM3722, growth: C-lim chemostat, doubling time 6 h
[7] = wild type E. coli NCM3722, growth: C-lim chemostat, doubling time 12 h
[8] = wild type E. coli NCM3722, growth: N-lim chemostat, doubling time 6 h
[9] = wild type E. coli NCM3722, growth: N-lim chemostat, doubling time 12 h
[10] = wild type E. coli NCM3722, growth: P-lim chemostat, doubling time 6 h
[11] = wild type E. coli NCM3722, growth: P-lim chemostat, doubling time 12 h
[12] = E. coli NCM3722 delta-hslV, growth: N-lim chemostat, doubling time 6 h

Sequence | total protein half-life in vivo [1] [h] | total protein half-life in vivo [2] [h] | total protein half-life in vivo [3] [h] | total protein half-life in vivo [4] [h] | total protein half-life in vivo [5] [h] | total protein half-life in vivo [6] [h] | total protein half-life in vivo [7] [h] | total protein half-life in vivo [8] [h] | total protein half-life in vivo [9] [h] | total protein half-life in vivo [10] [h] | total protein half-life in vivo [11] [h] | total protein half-life in vivo [12] [h]
MPDQTQQFSFKVLTINIHKGFTAFNRRFILPELRDAVRTVSADIVCLQEVMGAHEVHPLHVENWPDTSHYEFLADTMWSDFAYGRNAVYPEGHHGNAVLSRYPIEHYENRDVSVDGAEKRGVLYCRIVPPMTGKAIHVMCVHLGLREAHRQAQLAMLAEWVNELPDGEPVLVAGDFNDWRQKANHPLKVQAGLDEIFTRAHGRPARTFPVQFPLLRLDRIYVKNASASAPTALPLRTWRHLSDHAPLSAEIHL [P0AAW1] | 6.17 ± 0.23 | 6.2 ± 0.43 | 5.85 ± 0.22 | 5.57 ± 0.47 | 2.68 ± 0.41 | 4.96 ± 0.51 | 10.9 ± 3 | 5.11 ± 0.57 | 13.9 ± 0.67 | 5.16 ± 0.24 | 11.5 ± 0.52 | –
MPDSRKARRIADPGLQPERTSLAWFRTMLGYGALMALAIKHNWHQAGMLFWISIGILAIVALILWHYTRNRNLMDVTNSDFSQFHVVRDKFLISLAVLSLAILFAVTHIHQLIVFIERVA [P0ADL6] | – | – | – | – | – | – | – | – | 8.68 | – | – | –
MPELPEVETSRRGIEPHLVGATILHAVVRNGRLRWPVSEEIYRLSDQPVLSVQRRAKYLLLELPEGWIIIHLGMSGSLRILPEELPPEKHDHVDLVMSNGKVLRYTDPRRFGAWLWTKELEGHNVLTHLGPEPLSDDFNGEYLHQKCAKKKTAIKPWLMDNKLVVGVGNIYASESLFAAGIHPDRLASSLSLAECELLARVIKAVLLRSIEQGGTTLKDFLQSDGKPGYFAQELQVYGRKGEPCRVCGTPIVATKHAQRATFYCRQCQK | 6.1 ± 0.54 | 6.39 ± 0.79 | 6.39 ± 1.2 | 5.63 ± 0.36 | 2.58 ± 0.11 | – | 12.7 ± 2.8 | 6.31 ± 0.42 | 12.8 ± 1.4 | 6.46 ± 0.51 | 14.2 ± 0.28 | 6.03
MPENYTPAAAATGTWTEEEIRHQPRAWIRSLTNIDALRSALNNFLEPLLRKENLRIILTGAGTSAFIGDIIAPWLASHTGKNFSAVPTTDLVTNPMDYLNPAHPLLLISFGRSGNSPESVAAVELANQFVPECYHLPITCNEAGALYQNAINSDNAFALLMPAETHDRGFAMTSSITTMMASCLAVFAPETINSQTFRDVADRCQAILTSLGDFSEGVFGYAPWKRIVYLGSGGLQGAARESALKVLELTAGKLAAFYDSPTGFRHGPKSLVDDETLVVVFVSSHPYTRQYDLDLLAELRRDNQAMRVIAIAAESSDIVAAGPHIILPPSRHFIDVEQAFCFLMYAQTFALMQSLHMGNTPDTPSASGTVNRVVQGVIIHPWQA | – | – | – | – | 3.44 ± 0.35 | 3.18 | 5.91 | – | – | – | – | –
MPEPVAEPALNGLRLNLRIVSIVMFNFASYLTIGLPLAVLPGYVHDVMGFSAFWAGLVISLQYFATLLSRPHAGRYADSLGPKKIVVFGLCGCFLSGLGYLTAGLTASLPVISLLLLCLGRVILGIGQSFAGTGSTLWGVGVVGSLHIGRVISWNGIVTYGAMAMGAPLGVVFYHWGGLQALALIIMGVALVAILLAIPRPTVKASKGKPLPFRAVLGRVWLYGMALALASAGFGVIATFITLFYDAKGWDGAAFALTLFSCAFVGTRLLFPNGINRIGGLNVAMICFSVEIIGLLLVGVATMPWMAKIGVLLAGAGFSLVFPALGVVAVKAVPQQNQGAALATYTVFMDLSLGVTGPLAGLVMSWAGVPVIYLAAAGLVAIALLLTWRLKKRPPEHVPEAASSS | – | 3.62 | – | – | – | – | – | – | – | – | – | –
MPEQYRYTLPVKAGEQRLLGELTGAACATLVAEIAERHAGPVVLIAPDMQNALRLHDEISQFTDQMVMNLADWETLPYDSFSPHQDIISSRLSTLYQLPTMQRGVLIVPVNTLMQRVCPHSFLHGHALVMKKGQRLSRDALRTQLDSAGYRHVDQVMEHGEYATRGALLDLFPMGSELPYRLDFFDDEIDSLRVFDVDSQRTLEEVEAINLLPAHEFPTDKAAIELFRSQWRDTFEVKRDPEHIYQQVSKGTLPAGIEYWQPLFFSEPLPPLFSYFPANTLLVNTGDLETSAERFQADTLARFENRGVDPMRPLLPPQSLWLRVDELFSELKNWPRVQLKTEHLPTKAANANLGFQKLPDLAVQAQQKAPLDALRKFLETFDGPVVFSVESEGRREALGELLARIKIAPQRIMRLDEASDRGRYLMIGAAEHGFVDTVRNLALICESDLLGERVARRRQDSRRTINPDTLIRNLAELHIGQPVVHLEHGVGRYAGMTTLEAGGITGEYLMLTYANDAKLYVPVSSLHLISRYAGGAEENAPLHKLGGDAWSRARQKAAEKVRDVAAELLDIYAQRAAKEGFAFKHDREQYQLFCDSFPFETTPDQAQAINAVLSDMCQPLAMDRLVCGDVGFGKTEVAMRAAFLAVDNHKQVAVLVPTTLLAQQHYDNFRDRFANWPVRIEMISRFRSAKEQTQILAEVAEGKIDILIGTHKLLQSDVKFKDLGLLIVDEEHRFGVRHKERIKAMRANVDILTLTATPIPRTLNMAMSGMRDLSIIATPPARRLAVKTFVREYDSMVVREAILREILRGGQVYYLYNDVENIQKAAERLAELVPEARIAIGHGQMRERELERVMNDFHHQRFNVLVCTTIIETGIDIPTANTIIIERADHFGLAQLHQLRGRVGRSHHQAYAWLLTPHPKAMTTDAQKRLEAIASLEDLGAGFALATHDLEIRGAGELLGEEQSGSMETIGFSLYMELLENAVDALKAGREPSLEDLTSQQTEVELRMPSLLPDDFIPDVNTRLSFYKRIASAKTENELEEIKVELIDRFGLLPDPARTLLDIARLRQQAQKLGIRKLEGNEKGGVIEFAEKNHVNPAWLIGLLQKQPQHYRLDGPTRLKFIQDLSERKTRIEWVRQFMRELEENAIA | 5.59 ± 0.3 | 5.07 ± 0.12 | 5.12 ± 0.13 | 5.021 ± 0.009 | 3.07 ± 0.11 | 6.0491 ± 0.00051 | 11.4 ± 0.52 | 4.9912 ± 0.001 | 8.76 ± 0.27 | 5.92 ± 0.57 | 11.3 ± 0.21 | 5.1 ± 0.13
MPEVQTDHPETAELSKPQLRMVDLNLLTVFDAVMQEQNITRAAHVLGMSQPAVSNAVARLKVMFNDELFVRYGRGIQPTARAFQLFGSVRQALQLVQNELPGSGFEPASSERVFHLCVCSPLDSILTSQIYNHIEQIAPNIHVMFKSSLNQNTEHQLRYQETEFVISYEDFHRPEFTSVPLFKDEMVLVASKNHPTIKGPLLKHDVYNEQHAAVSLDRFASFSQPWYDTVDKQASIAYQGMAMMSVLSVVSQTHLVAIAPRWLAEEFAESLELQVLPLPLKQNSRTCYLSWHEAAGRDKGHQWMEEQLVSICKR | 5.69 ± 0.67 | 1.07 | – | – | – | – | – | – | – | – | – | –
MPFRSNNPITRDELLSRFFPQYHPVTTFNSGLSGGSFLIEHQGQRFVVRQPHDPDAPQSAFLRQYRALSQLPACIAPKPHLYLRDWMVVDYLPGAVKTYLPDTNELAGLLYYLHQQPRFGWRITLLPLLELYWQQSDPARRTVGWLRMLKRLRKAREPRPLRLSPLHMDVHAGNLVHSASGLKLIDWEYAGDGDIALELAAVWVENTEQHRQLVNDYATRAKIYPAQLWRQVRRWFPWLLMLKAGWFEYRWRQTGDQQFIRLADDTWRQLLIKQ | 6.3 ± 0.21 | 6.27 ± 0.31 | 6.04 ± 0.35 | 5.66 | – | 7.13 | > 16 | 6.24 ± 0.49 | 13.6 | 5.96 | 11.1 | 6.3
MPGLKITLLQQPLVWMDGPANLRHFDRQLEGITGRDVIVLPEMFTSGFAMEAAASSLAQDDVVNWMTAKAQQCNALIAGSVALQTESGSVNRFLLVEPGGTVHFYDKRHLFRMADEHLHYKAGNARVIVEWRGWRILPLVCYDLRFPVWSRNLNDYDLALYVANWPAPRSLHWQALLTARAIENQAYVAGCNRVGSDGNGCHYRGDSRVINPQGEIIATADAHQATRIDAELSMAALREYREKFPAWQDADEFRLW | 4.72 ± 0.34 | 4.042 ± 0.0079 | 4.4 ± 0.72 | 3.9 ± 0.082 | 2.74 ± 0.14 | 5.22 ± 0.33 | 11.7 ± 4.7 | 4.42 ± 0.34 | 6.49 | 5.74 ± 0.18 | 10.8 ± 0.35 | 4.46 ± 0.63
